Earlier results, collected in article PMC10148413.

Target: histone H3K4 methylated peptide (Homo sapiens) (UniProt P68431)

ASH1L PHD (from UniProt Q9NR48)
Kd: 150 µM
